The record followed here is paper PMC11053023, “Mechanism of Ψ-Pro/C-degron recognition by the CRL2^FEM1B ubiquitin ligase” (Nature Communications, 2024).

The target of this assay is FEM1B-EB-EC ternary complex (human) (UniProt Q9UK73). Description: SEC; peaks of the purified FEM1B-EB-EC complexes (Supplementary Fig. 1g); how the masses were found is not given.

“FEM1B-EB-EC ternary complex (from UniProt Q9UK73 1-627; Q15370 1-118; Q15369 17-112)” gave a stoichiometry N of 2.
